Article PMC8552709, “Mechanistic Insights into the Capsule-Targeting Depolymerase from a Klebsiella pneumoniae Bacteriophage” (Microbiology Spectrum, 2021)

Biological target: the molecule itself
Assay: SEC; HiLoad 16/600 Superdex 200-pg column, 25 mM Tris (pH 8.0), 200 mM NaCl; peak checked by reducing SDS-PAGE

B1: DpK2 (gp02), capsule depolymerase / tailspike protein of Klebsiella phage RAD2 (enzyme, UniProt P0DTN8 1-907, looked up)
chain: MALYREGKAAMAADGTVTGTGTKWQSSLSLIRPGATIMFLSSPIQMAVVNKVVSDTEIKAITTSGAVVASTDYAILLSDSLTVDGLAQDVAETLRHYQSQETVIADAVEFFKSFDFDSLQNLANQIKADSESAESSAAAAAASESKAKTSEDNAKSSENAAKNSEVAAETTRDQIQQIIDNAGDQSTLVVLAQPDGFDSIGRVSSFAALRNLKPKKSGQHVLLTSYYDGWAAENKMPTGGGEFISSIGTATDDGGYIAAGPGYYWTRVVNNNSFTAEDFGCKTTATPPPNFNVLPAELFDNTAMMQAAFNLAISKSFKLNLSTGTYYFESSDTLRITGPIHIEGRPGTVFYHNPSNKANPKTDAFMNISGCSAGRISSINCFSNSYLGKGINFDRSVGDNRKLVLEHVYVDTFRWGFYVGEPECINQIEFHSCRAQSNYFQGIFIESFKEGQEYGHSAPVHFFNTICNGNGPTSFALGATYKTTKNEYIKVMDSVNDVGCQAYFQGLSNVQYIGGQLSGHGSPRNTSLATITQCNSFIIYGTDLEDINGFTTDGTAITADNIDAIESNYLKDISGAAIVVSSCPGFKIDSPHIFKIKTLSTIKLMNNTYNYEIGGFTPDEALKYNVWDANGLATNRISGVIHPRLVNSRLGINSVAFDNMSNKLDVSSLIHNETSQIVGLTPSTGSNVPHTRKMWSNGAMYSSTDLNNGFRLNYLSNHNEPLTPMHLYNEFSVSEFGGSVTESNALDEIKYIFIQTTYANSGDGRFIIQALDASGSVLSSNWYSPQSFNSTFPISGFVRFDVPTGAKKIRYGFVNSANYTGSLRSHFMSGFAYNKRFFLKIYAVYNDLGRYGQFEPPYSVAIDRFRVGDNTTQMPSIPASSATDVAGVNEVINSLLASLKANGFMSS
notes: DpK2, product of gp02 of Klebsiella phage RAD2 (genome GenBank MW655991); 98 kDa; the open reading frame was cloned between NcoI and XhoI of pPROEX htb; residues 191 to 906 are modelled in the cryo-EM structure; Homotrimer; The forward primer ([residues removed]) reads M-G-A-L-Y-R-E-G-K, so the NcoI site may add a glycine after the first methionine; no removal of the His tag is described; also …
B1 was tested, and the “stoichiometry N” value was 3.
